In paper doi:10.1101/2021.05.25.445547:
“And” between values parts separate entries of the source, which are not always exact repeats. Equal entries are not always repeated.

Key:
[1] = molecular target: optimized bait-PAR-Grb2 with inserted flexible linker sequences, GFP-fused (UniProt P62993); assay: TIR-FRAP on micropatterned bait
[2] = molecular target: optimized bait-PAR-Grb2 with inserted flexible linker sequences, GFP-fused (UniProt P62993); assay: subcellular micropatterning
[3] = molecular target: optimized bait-PAR-Grb2 with inserted flexible linker sequences, RFP-fused (UniProt P62993); assay: subcellular micropatterning
[4] = molecular target: T1, optimized bait-PAR-Grb2 with inserted flexible linker sequences, RFP-fused, P62993; assay: TIR-FRAP on micropatterned bait; conditions: remark: other sources report otherwise
[5] = molecular target: T1, optimized bait-PAR-Grb2 with inserted …; assay: subcellular micropatterning; conditions: remark: other sources report otherwise

Molecule: SHC-transforming protein 1 (Shc1), RFP-fused (from UniProt P29353 1-583) (natural protein)
- halftime of dissociation (FRAP) [1]: 10 s
- k slow (exchange rate, bi-exponential FRAP fit) [1]: 0.103 s⁻¹
- bait-normalized fluorescence contrast <c (prey/bait)>, after EGF [2]: 0.45
- bait-normalized fluorescence contrast <c (prey/bait)>, unstimulated cells [2]: 0.14

Molecule: cell-permeable cyclic peptide cyclo(YpVNFΦrpPRR)
- EC50 [3]: 68 µM and 63 µM
- dissociation half-life of Gab1 from Grb2 at 100 μM peptide [3]: 42 s
- dissociation half-life of SOS1 from Grb2 at 100 μM peptide [3]: 36 s
- maximum prey dissociation (Gab1 and SOS1 from Grb2) at 100 μM peptide [3]: 70 to 75%

B1: son of sevenless protein 1 (SOS1), GFP-fused, Q07889 1-1333 (natural protein)
chain: MQAQQLPYEFFSEENAPKWRGLLVPALKKVQGQVHPTLESNDDALQYVEELILQLLNMLCQAQPRSASDVEERVQKSFPHPIDKWAIADAQSAIEKRKRRNPLSLPVEKIHPLLKEVLGYKIDHQVSVYIVAVLEYISADILKLVGNYVRNIRHYEITKQDIKVAMCADKVLMDMFHQDVEDINILSLTDEEPSTSGEQTYYDLVKAFMAEIRQYIRELNLIIKVFREPFVSNSKLFSANDVENIFSRIVDIHELSVKLLGHIEDTVEMTDEGSPHPLVGSCFEDLAEELAFDPYESYARDILRPGFHDRFLSQLSKPGAALYLQSIGEGFKEAVQYVLPRLLLAPVYHCLHYFELLKQLEEKSEDQEDKECLKQAITALLNVQSGMEKICSKSLAKRRLSESACRFYSQQMKGKQLAIKKMNEIQKNIDGWEGKDIGQCCNEFIMEGTLTRVGAKHERHIFLFDGLMICCKSNHGQPRLPGASNAEYRLKEKFFMRKVQINDKDDTNEYKHAFEIILKDENSVIFSAKSAEEKNNWMAALISLQYRSTLERMLDVTMLQEEKEEQMRLPSADVYRFAEPDSEENIIFEENMQPKAGIPIIKAGTVIKLIERLTYHMYADPNFVRTFLTTYRSFCKPQELLSLIIERFEIPEPEPTEADRIAIENGDQPLSAELKRFRKEYIQPVQLRVLNVCRHWVEHHFYDFERDAYLLQRMEEFIGTVRGKAMKKWVESITKIIQRKKIARDNGPGHNITFQSSPPTVEWHISRPGHIETFDLLTLHPIEIARQLTLLESDLYRAVQPSELVGSVWTKEDKEINSPNLLKMIRHTTNLTLWFEKCIVETENLEERVAVVSRIIEILQVFQELNNFNGVLEVVSAMNSSPVYRLDHTFEQIPSRQKKILEEAHELSEDHYKKYLAKLRSINPPCVPFFGIYLTNILKTEEGNPEVLKRHGKELINFSKRRKVAEITGEIQQYQNQPYCLRVESDIKRFFENLNPMGNSMEKEFTDYLFNKSLEIEPRNPKPLPRFPKKYSYPLKSPGVRPSNPRPGTMRHPTPLQQEPRKISYSRIPESETESTASAPNSPRTPLTPPPASGASSTTDVCSVFDSDHSSPFHSSNDTVFIQVTLPHGPRSASVSSISLTKGTDEVPVPPPVPPRRRPESAPAESSPSKIMSKHLDSPPAIPPRQPTSKAYSPRYSISDRTSISDPPESPPLLPPREPVRTPDVFSSSPLHLQPPPLGKKSDHGNAFFPNSPSPFTPPPPQTPSPHGTRRHLPSPPLTQEVDLHSIAGPPVPPRQSTSQHIPKLPPKTYKREHTHPSMHRDGPPLLENAHSS
- halftime of dissociation (FRAP) [4]: 13 s
- k slow (exchange rate, bi-exponential FRAP fit) [4]: 0.074 s⁻¹
- bait-normalized fluorescence contrast <c (prey/bait)>, after EGF [5]: 0.56
- bait-normalized fluorescence contrast <c (prey/bait)>, basal conditions [5]: 0.55
- reduction of copatterning with 10 μM actinomycin D [5]: 25%
